Experiments:
[1] = target: the molecule itself; experiment: immunoblot of oligomer bands after SDS-PAGE; C2C12 myoblasts transfected with EYFP tagged REEP5 and truncation mutants; SDS-resistant dimers
[2] = target: the molecule itself; experiment: immunoblot of oligomer bands after SDS-PAGE; lysates and nickel-His eluate of transfected HEK293 cells; increasing DTT lowered the dimer band

B1: REEP5-EYFP (natural protein)
chain: not shown
notes: Receptor expression-enhancing protein 5 (REEP5), human (NM_005669.4), parent of the EYFP tagged truncation mutants; source: C2C12 myoblasts, transfected, in lysate
- stoichiometry N [1]: 2

B2: CnVA-tagged (StrepII-6xHis, 3xFlag) REEP5 (natural protein)
chain: not shown
notes: Receptor expression-enhancing protein 5 (REEP5), human, subcloned from NM_005669.4 into pLD-puro-CnVA; also called CnVA-REEP5; source: HEK293, transfected, in lysate; nickel-His purification
- stoichiometry N [2]: 2

B3: Δ1–36 REEP5-EYFP (domain or fragment)
chain: not shown
notes: REEP5, human (NM_005669.4), lacking residues 1-36; source: C2C12 myoblasts, transfected, in lysate
- stoichiometry N [1]: 2

B4: REEP5-V5-6xHis (natural protein)
chain: not shown
notes: REEP5 was fused to a V5 tag followed by a 6xHis tag; source: HEK293, transfected, in lysate
- stoichiometry N [2]: 2

B5: endogenous REEP5 (HEK293) (natural protein)
chain: not shown
notes: Receptor expression-enhancing protein 5 (REEP5), endogenous in HEK293 cells; source: endogenous, HEK293 lysate
- stoichiometry N [2]: 2
